From patent US20080227123A1

Biological target: B cell antigen receptor (BCR; surface IgM) on DT40-ASF cells (chicken)
Assay: cell-based or functional assay

antibody M4 (mouse-derived anti-chicken IgM monoclonal antibody)
recovery of cell proliferation of doxycycline-treated DT40-ASF cells: > 1 µg/mL
